Data on one substance can be found in US20240018252A1.

One may read the Kd as a measure of binding affinity in units of concentration.

The assay has as its target human CD3 (huCD3ed) (human) (UniProt P07766). Briefly: Biacore SPR, antibody as ligand, hCD3ed 80 nM-0.64 nM, kinetic fit. For orientation: SPR reads the build-up and loss of mass on a sensor chip optically.

Sequence of human CD3 (huCD3ed) (human) (P07766 23-126, chain 1 of 2): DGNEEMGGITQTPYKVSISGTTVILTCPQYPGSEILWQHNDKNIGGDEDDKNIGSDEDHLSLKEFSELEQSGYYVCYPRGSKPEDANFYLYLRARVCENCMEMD
Sequence of human CD3 (huCD3ed) (human) (P04234 22-105, chain 2 of 2, further chain): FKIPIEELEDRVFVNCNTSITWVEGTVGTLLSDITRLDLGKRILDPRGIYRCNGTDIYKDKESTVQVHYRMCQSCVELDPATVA

For the substance SP34 (antibody), the equilibrium dissociation constant (Kd) amounted to 10.7 nM and the t1/2 stood at 3.8 min.
